{"source": "the RNAGym collection of RNA variant scans (doi:10.7554/elife.80360)", "parents": {"B1": {"name": "HDV Ribozyme (parent)", "chain": "GGCCGGCAUGGUCCCAGCCUCCUCGCUGGCGCCGGCUGGGCAACAUUCCGAGGGGACCGUCCCCUCGGUAAUGGCGAAUGGGACCCA"}}, "data": [{"variants_of": "B1", "test": "self-cleavage, relative activity (ratio to wild type); higher = more cleavage; co-transcriptional", "values": [{"variant": "G52C C63A", "self-cleavage": 1.05}, {"variant": "G52C C63U", "self-cleavage": 0.919}, {"variant": "G54A C57G", "self-cleavage": 0.903}, {"variant": "G53U G81A", "self-cleavage": 0.445}, {"variant": "G54C C58A", "self-cleavage": 0.923}, {"variant": "G53C C62G", "self-cleavage": 1.01}, {"variant": "G53A C57G", "self-cleavage": 0.992}, {"variant": "G53C C75G", "self-cleavage": 0.0627}, {"variant": "G53C C75A", "self-cleavage": 0.175}, {"variant": "G54C C64G", "self-cleavage": 0.787}, {"variant": "G53C U60G", "self-cleavage": 1.01}, {"variant": "G53A C86U", "self-cleavage": 0.881}, {"variant": "G54U C66U", "self-cleavage": 0.914}, {"variant": "G52U G73A", "self-cleavage": 0.546}, {"variant": "G53C G68C", "self-cleavage": 0.372}, {"variant": "G53U C66A", "self-cleavage": 0.937}, {"variant": "G52C G55C", "self-cleavage": 1.03}, {"variant": "G53U A56G", "self-cleavage": 1.03}, {"variant": "G53U A56U", "self-cleavage": 0.956}, {"variant": "G54C C57U", "self-cleavage": 0.997}, {"variant": "G53A C66A", "self-cleavage": 0.794}, {"variant": "G52U G82U", "self-cleavage": 0.382}, {"variant": "G54A U60G", "self-cleavage": 1.03}, {"variant": "G52C U79G", "self-cleavage": 0.475}, {"variant": "G53C A87C", "self-cleavage": 1.01}, {"variant": "G54U C62A", "self-cleavage": 0.99}, {"variant": "G54C A83U", "self-cleavage": 0.631}, {"variant": "G53A G76U", "self-cleavage": 1.11}, {"variant": "G53A G76A", "self-cleavage": 1.16}, {"variant": "G54A G80A", "self-cleavage": 0.443}, {"variant": "G54U C75G", "self-cleavage": 0.114}, {"variant": "G52C C75A", "self-cleavage": 0.153}, {"variant": "G54A G67U", "self-cleavage": 0.657}, {"variant": "G53C A56C", "self-cleavage": 1.14}, {"variant": "G53C A56U", "self-cleavage": 1.11}, {"variant": "G52U C84U", "self-cleavage": 0.71}, {"variant": "G54C G55A", "self-cleavage": 1.08}, {"variant": "G52U G67U", "self-cleavage": 0.205}, {"variant": "G54U A70C", "self-cleavage": 0.515}, {"variant": "G53A C85G", "self-cleavage": 0.923}, {"variant": "G54A A83G", "self-cleavage": 0.692}, {"variant": "G54A A83U", "self-cleavage": 0.509}, {"variant": "G54A A83C", "self-cleavage": 0.277}, {"variant": "G54C G82U", "self-cleavage": 0.448}, {"variant": "G54C G82A", "self-cleavage": 0.226}, {"variant": "G53U G55A", "self-cleavage": 1.18}, {"variant": "G53C U69G", "self-cleavage": 1.14}, {"variant": "G53C U69C", "self-cleavage": 1.01}, {"variant": "G52C C62U", "self-cleavage": 0.987}, {"variant": "G53A A71G", "self-cleavage": 0.941}, {"variant": "G52U U69A", "self-cleavage": 1.09}, {"variant": "G52U U69C", "self-cleavage": 0.831}, {"variant": "G52C C64U", "self-cleavage": 0.964}, {"variant": "G53A A56U", "self-cleavage": 0.873}, {"variant": "G53U C84G", "self-cleavage": 0.554}, {"variant": "G53U C84A", "self-cleavage": 0.754}, {"variant": "G53C U65C", "self-cleavage": 0.772}, {"variant": "G53C U65A", "self-cleavage": 0.629}, {"variant": "G53U G80U", "self-cleavage": 0.256}, {"variant": "G53U G80A", "self-cleavage": 0.419}, {"variant": "G53U G80C", "self-cleavage": 0.304}, {"variant": "G54U C63U", "self-cleavage": 0.892}, {"variant": "G53U G82C", "self-cleavage": 0.381}, {"variant": "G54C C84U", "self-cleavage": 0.665}, {"variant": "G52C C58A", "self-cleavage": 0.796}, {"variant": "G54C U72G", "self-cleavage": 0.431}, {"variant": "G52U U60G", "self-cleavage": 0.978}, {"variant": "G52U U60A", "self-cleavage": 1.05}, {"variant": "G53A C58G", "self-cleavage": 0.935}, {"variant": "G52U U65C", "self-cleavage": 0.658}, {"variant": "G53U C64A", "self-cleavage": 0.777}, {"variant": "G53C A71C", "self-cleavage": 0.356}, {"variant": "G53C A71G", "self-cleavage": 1.07}, {"variant": "G53A G55A", "self-cleavage": 0.923}, {"variant": "G53A G55C", "self-cleavage": 0.912}, {"variant": "G54A C85U", "self-cleavage": 0.808}, {"variant": "G54A C85A", "self-cleavage": 0.917}, {"variant": "G52U A83G", "self-cleavage": 0.81}, {"variant": "G52C G74U", "self-cleavage": 0.312}, {"variant": "G52U G81U", "self-cleavage": 0.429}, {"variant": "G54U A77U", "self-cleavage": 0.688}, {"variant": "G54U A77G", "self-cleavage": 0.878}, {"variant": "G53U C62A", "self-cleavage": 0.901}, {"variant": "G52U C63A", "self-cleavage": 0.806}]}]}
